Results published in the supplement of paper PMC9170038.

Experiments:
MS2 coat protein = experiment: apparent KD of MS2 coat protein; higher = weaker reporter binding; conditions: Eterna round: R107
Description: (§1)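 RNA-MaP round R107: designed RNA switches with theophylline, tryptophan, arginine or FMN aptamers are transcribed on-chip within common flanks. They are titrated with SNAP-549-labelled MS2 coat protein in RNA-MaP buffer (100 mM Tris pH 7.5, 80 mM KCl, 4 mM MgCl2), without ligand or with the indicated ligand. Median apparent KD per design.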

[1] = tested on: K4 kissing-loop RNA reporter; experiment: apparent KD of K4 kissing-loop reporter; higher = weaker reporter binding; conditions: Eterna round: R107;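 further: bound reporter read as fluorescence of individual clusters on recovered sequencing chips by microscopy, with normalized cluster intensities fitted with a binding model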
Description: as §1, with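 “a labelled K4 kissing-loop RNA reporter” for “SNAP-549-labelled MS2 coat protein”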

[2] = input ligand: theophylline 20 uM
[3] = input ligand: tryptophan 2.4 mM
[4] = input ligand: theophylline 2 mM

| Sequence | apparent KD of MS2 coat protein (MS2 coat protein; input ligand: arginine 13.2 mM) | apparent KD of MS2 coat protein (MS2 coat protein; [2]) | apparent KD of MS2 coat protein (MS2 coat protein; [3]) | apparent KD of MS2 coat protein (MS2 coat protein; input ligand: none) | apparent KD of MS2 coat protein (MS2 coat protein; [4]) | apparent KD of K4 kissing-loop reporter ([1]; input ligand: FMN 200 uM) | apparent KD of K4 kissing-loop reporter ([1]; input ligand: arginine 13.2 mM) | apparent KD of K4 kissing-loop reporter ([1]; input ligand: none) | apparent KD of K4 kissing-loop reporter [1, 2] | apparent KD of K4 kissing-loop reporter [1, 3] |
| --- | --- | --- | --- | --- | --- | --- | --- | --- | --- | --- |
| UAAAACAUGAGGAUCACCCAUGUAAAUGAUACCAGAGUGAUGAUCCUCCCUUGGCAGCAUAACGCUGAUUGGAAACAAUCAGCGA [Mat - Same State Theophlline A - Mod of Eli - D23] | 28.8 nM | 144 nM | 75.8 nM | – | – | – | – | – | – | – |
| GGCUGUUGCGAUUUGAAGCGGCAGCGUGAUACCAGAUGUAAGAGCGUCCCUUGGCAGCACGUUUACAUGAGGAUCACCCAUGUCA [Xerema] | 56.6 nM | 123 nM | 192 nM | – | – | – | – | – | – | – |
| ACAUGGGUCUGAAGGAGCGCGAUAACAUGAGGAUCACCCAUGUAAAGUGGAACAUGAUAAUCGCAGGUAGGUCGCAGUAAAACCC [#26 Same State - Arginine B] | 81.6 nM | 293 nM | 328 nM | 412 nM | 476 nM | – | – | – | – | – |
| CUGCUACAUACGGCCGCCACUUUAAACAUGAGGAUCACCCAUGUACGGAAGGGUGGUAAAUGUUAAAGGACCGGGUAUGUAGCAA [Tryp B Ex t1] | 64.4 nM | 296 nM | – | – | 293 nM | – | – | – | – | – |
| AAGGUGAUCCCAGAUACCAGCUUAACAUGAGGAUCACCCAUGUAACGGACGAAAGUCCGGAGCCCUUGGCAGCUGGGUUGCCAAG [SSTheo B #14] | 102 nM | 305 nM | 90.9 nM | 266 nM | 141 nM | – | – | – | – | – |
| AAAGGAAGGUAAAAUAAAACUACAUGUGAAGGAGCGCGCGAAAGCGCAGGUAGGUCGCACAUGAGGAUCACCCAUGUCCUUCCAA [MAT - Exclusion Arginine A - Mod of Eli - D4] | 112 nM | 181 nM | 96.8 nM | 104 nM | 129 nM | – | – | – | – | – |
| GGCUGUCAUAGGAGGUCAAAUAUACUCGAAGGAGCGUCAUAGUAGGCAGGUAGGUCGCGAGACAUGAGGAUCACCCAUGUAGAGA [xkxmullin] | 37.7 nM | 122 nM | 30.6 nM | 69.1 nM | 52.9 nM | – | – | – | – | – |
| GGGCCCGGGCGCGAGCCCGGGCCCAUUGAUACCAGUGAAUGUGUACGCCCUUGGCAGCGAAUCCUAACAUGAGGAUCACCCAUGU [5.D] | 31.4 nM | 76.7 nM | 35.2 nM | – | – | – | – | – | – | – |
| UGGUGCCCUGUAUACAUUGUAAUCCUAAUGCGAGGACCGGUACGGCCGCCACUCGUUGCGGAACAUGAGGAUCACCCAUGUAACA [theeternabot_exclusion_MS2_Trp_A_21] | 17 nM | 26.2 nM | – | – | 32 nM | – | – | – | – | – |
| GGGCGUGUGGCGCGGCGUGCUCCGCUCCGUCGAGGACCGGUACGGCCGCCACUCGACAUGAGGAUCACCCAUGUGCGAGCUCGCG [#1 Exclusion - Tryptophan A Attempt #11 (HarryS)] | 17.6 nM | 35.6 nM | 154 nM | 33.8 nM | 44.6 nM | – | – | – | – | – |
| ACAUGAGGAUCACCCAUGUUCCUCGCCGAUACCAGUGAAGAAUUACGCCCUUGGCAGCGGAAAGAGUAUUUUGGAGAUGAGGUAC [6.Z] | 51.7 nM | 127 nM | 66 nM | – | – | – | – | – | – | – |
| UCUCACAUGAGGAUCACCCAUGUUAAGGCCCGAGGACCGGUACGGCCGCCACUCGUUGGAAGCCGGUAACGUACGAAUCUUCCGU [theeternabot_sameState_MS2_Trp_A_18] | 16.2 nM | 26.9 nM | – | – | 22.9 nM | – | – | – | – | – |
| UGUAACAUGAGGAUCACCCAUGUGAGUGAUACCAGACUAGUGUUAGUCCCUUGGCAGCACGCUGGACAAAUGUGUAGUCUAUGCG [Same State - Theophylline A (Freestyle 20)] | 40.2 nM | 112 nM | 70.5 nM | 72.7 nM | 62.6 nM | – | – | – | – | – |
| CUGCCACGAACGGCCGCCACUUACAUGAGGAUCACCCAUGUGCCUGCGCACAAAGAAUGUCAAGAAAGGACCGGGUUCAAAUAGU [theeternabot_exclusion_MS2_Trp_B_41] | 43.2 nM | 177 nM | – | – | 132 nM | – | – | – | – | – |
| UGUAUGUGAUCUGAUACCAGCUUAAUAGCUUGAGGAUCACCCAAGUGGAGCGGAAACGCUAGCCCUUGGCAGCAGAUCGCAUACU [Denovo 10 #StaticStem #AlternativeMS2] | 104 nM | 104 nM | 198 nM | 198 nM | 11.9 nM | – | – | – | – | – |
| GACCCAUGAGUUGCAAAAGCUCAUGGGUCGCGAGGACCGGUACGGCCGCCACUCGGCUGUACAUGAGGAUCACCCAUGUCAGGGU [#1 Same State - Tryptophan A Attempt #26 (HarryS)] | 54.4 nM | 615 nM | – | – | 845 nM | – | – | – | – | – |
| ACAUGAGGAUCACCCAUGUAUGAUGUUCCUCGAGGACCGGUACGGCCGCCACUCGAACGAGUGGCACGCGAGUGCGCACUCGCGU [aXa] | 22.1 nM | 19.6 nM | 11.7 nM | 14.2 nM | 14.9 nM | – | – | – | – | – |
| CAUGUGUCUGGAAGGAGCGCGGGUUGGUUAAACACUGUCGCGGGCCAGUGAUGUUGGAAUCCGCAGGUAGGUCGCCAGCCACUUG [Araton] | – | – | – | – | – | 284 nM | 476 nM | 350 nM | 533 nM | 460 nM |
| AAGUAGCUCUCGGCCGCCACUCCUCAGUGAUGUUGAGAUAUUAAGAGACAAUUGUCUCAUAUAAAGAGGACCGGGAGAGCUACAA [AK5 SS Tryptophan B] | – | – | – | – | – | 445 nM | 384 nM | 439 nM | 460 nM | 133 nM |
| CUUCGAUUAACAGAUACCAGUCAUACUGGAGCCUCACUCGAGUGAGUGAUGUUCACUUGAGACCCUUGGCAGCUGUUAGUCGAAG [Theo B Ex t1a] | – | – | – | – | – | 92.3 nM | 86.2 nM | 89.6 nM | 106 nM | 93.4 nM |
| GUACCUUGGAAACAAGGACAGAUAACCGAAGGAGCGCGUGAAAACGCAGGUAGGUCGCGGAAGCAGUGAUGUUGCAAAAGAGAGC [Same State Arginine A GF 17] | – | – | – | – | – | 168 nM | 188 nM | 125 nM | 228 nM | 111 nM |
